Measurements taken from EP4368203A1 (Wuhan Neurophth Biotechnology Limited Company, dated 2024).

Target: T1, rat VEGF (in rat serum) (rat, UniProt P16612-2 27-190, limits assumed)
T1 construct: also called VEGF in rat serum samples
T1 sequence (looked up): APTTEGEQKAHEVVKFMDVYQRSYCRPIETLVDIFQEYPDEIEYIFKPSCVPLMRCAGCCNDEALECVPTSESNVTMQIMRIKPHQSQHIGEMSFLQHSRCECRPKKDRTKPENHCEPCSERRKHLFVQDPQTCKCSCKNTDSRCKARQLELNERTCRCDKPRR
Experiment: Western blot, cell supernatant as primary antibody

B1: anti-VEGF Fab expressed by the MDR6 plasmid (culture supernatant of transfected cells) (Fab, V domains shown)
VH: EVQLVESGGGLVQPGGSLRLSCAASGYDFTHYGMNWVRQAPGKGLEWVGWINTYTGEPTYAADFKRRFTFSLDTSKSTAYLQMNSLRAEDTAVYYCAKYPYYYGTSHWYFDVWGQGTLVTVSS
VL: DIQLTQSPSSLSASVGDRVTITCSASQDISNYLNWYQQKPGKAPKVLIYFTSSLHSGVPSRFSGSGSGTDFTLTISSLQPEDFATYYCQQYSTVPWTFGQGTKVEIKR
notes: also called M6
Q: Does B1 bind?
A: no binding (tested: 5 ug of rat serum)
